Results on ten molecules are retold here after paper PMC4749569, “Atomic structure of the 26S proteasome lid reveals the mechanism of deubiquitinase inhibition” (eLife, 2016).

Test [1] deals with Rpn11 (S. cerevisiae (yeast)) (UniProt P43588).
Test [2] has the same target. This is another data set of the same source.
Test [3] has the same target. The source holds these as a separate data set.
The next test addresses Rpn11 (S. cerevisiae (yeast), UniProt P43588 1-306). Kind of test: cell-based or functional assay.
Test [4] deals with T1, Rpn9 (S. cerevisiae (yeast)) (UniProt Q04062).
T1 sequence: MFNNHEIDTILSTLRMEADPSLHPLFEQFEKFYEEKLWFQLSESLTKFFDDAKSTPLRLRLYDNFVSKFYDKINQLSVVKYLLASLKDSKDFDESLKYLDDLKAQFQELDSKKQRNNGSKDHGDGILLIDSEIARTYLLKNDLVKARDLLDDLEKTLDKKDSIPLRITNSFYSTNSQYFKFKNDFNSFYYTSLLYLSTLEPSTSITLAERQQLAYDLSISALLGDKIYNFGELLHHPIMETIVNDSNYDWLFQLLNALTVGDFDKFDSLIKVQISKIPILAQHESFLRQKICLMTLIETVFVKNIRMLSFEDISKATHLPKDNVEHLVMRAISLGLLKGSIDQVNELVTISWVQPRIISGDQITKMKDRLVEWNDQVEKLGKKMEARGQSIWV

Chain of Rpn11 (S. cerevisiae (yeast)) (P43588 whole entry): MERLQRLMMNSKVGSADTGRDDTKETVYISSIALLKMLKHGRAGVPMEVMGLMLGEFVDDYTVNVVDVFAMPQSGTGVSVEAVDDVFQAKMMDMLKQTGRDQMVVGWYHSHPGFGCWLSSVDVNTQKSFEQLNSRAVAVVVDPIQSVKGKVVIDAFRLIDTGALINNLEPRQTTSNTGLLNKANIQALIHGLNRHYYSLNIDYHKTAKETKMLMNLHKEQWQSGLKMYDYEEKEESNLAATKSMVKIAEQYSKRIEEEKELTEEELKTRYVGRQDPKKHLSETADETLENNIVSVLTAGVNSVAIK
Chain of Rpn11 (P43588 whole entry): as above

B1: Rpn5 (Y273A) (natural protein)
chain: MSRDAPIKADKDYSQILKEEFPKIDSLAQNDCNSALDQLLVLEKKTRQASDLASSKEVLAKIVDLLASRNKWDDLNEQLTLLSKKHGQLKLSIQYMIQKVMEYLKSSKSLDLNTRISVIETIRVVTENKIFVEVERARVTKDLVEIKKEEGKIDEAADILCELQVETYGSMEMSEKIQFILEQMELSILKGDYSQATVLSRKILKKTFKNPKYESLKLEYYNLLVKISLHKREYLEVAQYLQEIYQTDAIKSDEAKWKPVLSHIVYFLVLSPAGNLQNDLIHKIQNDNNLKKLESQESLVKLFTTNELMRWPIVQKTYEPVLNEDDLAFGGEANKHHWEDLQKRVIEHNLRVISEYYSRITLLRLNELLDLTESQTETYISDLVNQGIIYAKVNRPAKIVNFEKPKNSSQLLNEWSHNVDELLEHIETIGHLITKEEIMHGLQAK
On to B1, for which the Ub-AMC cleavage rate of Rpn11 in the isolated lid with this variant, relative to the isolated Rpn11/Rpn8 dimer (% of the isolated Rpn11/Rpn8 dimer) in test [1] was 61.

B2: Rpn5 (N275A) (natural protein)
chain: MSRDAPIKADKDYSQILKEEFPKIDSLAQNDCNSALDQLLVLEKKTRQASDLASSKEVLAKIVDLLASRNKWDDLNEQLTLLSKKHGQLKLSIQYMIQKVMEYLKSSKSLDLNTRISVIETIRVVTENKIFVEVERARVTKDLVEIKKEEGKIDEAADILCELQVETYGSMEMSEKIQFILEQMELSILKGDYSQATVLSRKILKKTFKNPKYESLKLEYYNLLVKISLHKREYLEVAQYLQEIYQTDAIKSDEAKWKPVLSHIVYFLVLSPYGALQNDLIHKIQNDNNLKKLESQESLVKLFTTNELMRWPIVQKTYEPVLNEDDLAFGGEANKHHWEDLQKRVIEHNLRVISEYYSRITLLRLNELLDLTESQTETYISDLVNQGIIYAKVNRPAKIVNFEKPKNSSQLLNEWSHNVDELLEHIETIGHLITKEEIMHGLQAK
For the molecule B2, the Ub-AMC cleavage rate of Rpn11 in the isolated lid with this variant, relative to the isolated MPN heterodimer (% of the isolated MPN heterodimer) in test [2] was found to be 51.

B3: Rpn5 (H282A) (natural protein)
chain: MSRDAPIKADKDYSQILKEEFPKIDSLAQNDCNSALDQLLVLEKKTRQASDLASSKEVLAKIVDLLASRNKWDDLNEQLTLLSKKHGQLKLSIQYMIQKVMEYLKSSKSLDLNTRISVIETIRVVTENKIFVEVERARVTKDLVEIKKEEGKIDEAADILCELQVETYGSMEMSEKIQFILEQMELSILKGDYSQATVLSRKILKKTFKNPKYESLKLEYYNLLVKISLHKREYLEVAQYLQEIYQTDAIKSDEAKWKPVLSHIVYFLVLSPYGNLQNDLIAKIQNDNNLKKLESQESLVKLFTTNELMRWPIVQKTYEPVLNEDDLAFGGEANKHHWEDLQKRVIEHNLRVISEYYSRITLLRLNELLDLTESQTETYISDLVNQGIIYAKVNRPAKIVNFEKPKNSSQLLNEWSHNVDELLEHIETIGHLITKEEIMHGLQAK
As for B3, the Ub-AMC cleavage rate of Rpn11 in the isolated lid with this variant, relative to the free MPN heterodimer (% of the free MPN heterodimer) in test [3] was 31.

B4: Rpn5 K283A (natural protein)
chain: MSRDAPIKADKDYSQILKEEFPKIDSLAQNDCNSALDQLLVLEKKTRQASDLASSKEVLAKIVDLLASRNKWDDLNEQLTLLSKKHGQLKLSIQYMIQKVMEYLKSSKSLDLNTRISVIETIRVVTENKIFVEVERARVTKDLVEIKKEEGKIDEAADILCELQVETYGSMEMSEKIQFILEQMELSILKGDYSQATVLSRKILKKTFKNPKYESLKLEYYNLLVKISLHKREYLEVAQYLQEIYQTDAIKSDEAKWKPVLSHIVYFLVLSPYGNLQNDLIHAIQNDNNLKKLESQESLVKLFTTNELMRWPIVQKTYEPVLNEDDLAFGGEANKHHWEDLQKRVIEHNLRVISEYYSRITLLRLNELLDLTESQTETYISDLVNQGIIYAKVNRPAKIVNFEKPKNSSQLLNEWSHNVDELLEHIETIGHLITKEEIMHGLQAK
B4: in test [3], the Ub-AMC cleavage rate of Rpn11 in the isolated lid with this variant, relative to the free MPN heterodimer (% of the free MPN heterodimer) came to 41.

B5: Rpn5 (H282A,K283A) (natural protein)
chain: MSRDAPIKADKDYSQILKEEFPKIDSLAQNDCNSALDQLLVLEKKTRQASDLASSKEVLAKIVDLLASRNKWDDLNEQLTLLSKKHGQLKLSIQYMIQKVMEYLKSSKSLDLNTRISVIETIRVVTENKIFVEVERARVTKDLVEIKKEEGKIDEAADILCELQVETYGSMEMSEKIQFILEQMELSILKGDYSQATVLSRKILKKTFKNPKYESLKLEYYNLLVKISLHKREYLEVAQYLQEIYQTDAIKSDEAKWKPVLSHIVYFLVLSPYGNLQNDLIAAIQNDNNLKKLESQESLVKLFTTNELMRWPIVQKTYEPVLNEDDLAFGGEANKHHWEDLQKRVIEHNLRVISEYYSRITLLRLNELLDLTESQTETYISDLVNQGIIYAKVNRPAKIVNFEKPKNSSQLLNEWSHNVDELLEHIETIGHLITKEEIMHGLQAK
Regarding B5, the Ub-AMC cleavage rate of Rpn11 in the isolated lid with this variant, relative to the free MPN heterodimer (% of the free MPN heterodimer) in test [3] is 51.

B6: Rpn5 (natural protein, S. cerevisiae (yeast))
chain: MSRDAPIKADKDYSQILKEEFPKIDSLAQNDCNSALDQLLVLEKKTRQASDLASSKEVLAKIVDLLASRNKWDDLNEQLTLLSKKHGQLKLSIQYMIQKVMEYLKSSKSLDLNTRISVIETIRVVTENKIFVEVERARVTKDLVEIKKEEGKIDEAADILCELQVETYGSMEMSEKIQFILEQMELSILKGDYSQATVLSRKILKKTFKNPKYESLKLEYYNLLVKISLHKREYLEVAQYLQEIYQTDAIKSDEAKWKPVLSHIVYFLVLSPYGNLQNDLIHKIQNDNNLKKLESQESLVKLFTTNELMRWPIVQKTYEPVLNEDDLAFGGEANKHHWEDLQKRVIEHNLRVISEYYSRITLLRLNELLDLTESQTETYISDLVNQGIIYAKVNRPAKIVNFEKPKNSSQLLNEWSHNVDELLEHIETIGHLITKEEIMHGLQAK
For the molecule B6, the “Ub-AMC cleavage rate of Rpn11 in the isolated wild-type lid against the free Rpn11/Rpn8 dimer (500 nM enzyme, 2.5 μM Ubiquitin-AMC, 30°C, lid buffer)” value with Rpn11 stood at 5 fold lower.

B7: Rpn8 (K86A,K88A) (natural protein)
chain: MSLQHEKVTIAPLVLLSALDHYERTQTKENKRCVGVILGDANSSTIRVTNSFALPFEEDEKNSDVWFLDHNYIENMNEMCKKINAAEALIGWYHSGPKLRASDLKINELFKKYTQNNPLLLIVDVKQQGVGLPTDAYVAIEQVKDDGTSTEKTFLHLPCTIEAEEAEEIGVEHLLRDVRDQAAGGLSIRLTNQLKSLKGLQSKLKDVVEYLDKVINKELPINHTILGKLQDVFNLLPNLGTPDDDEIDVENHDRINISNNLQKALTVKTNDELMVIYISNLVRSIIAFDDLIENKIQNKKIQEQRVKDKQSKVSDDSESESGDKEATAPLIQRKNKKN
In the case of B7, the Ub-AMC cleavage rate of Rpn11 in the isolated lid with this variant, relative to the isolated MPN heterodimer (% of the isolated MPN heterodimer) in test [4] is 60.

B8: Rpn8 (K88A) (natural protein)
chain: MSLQHEKVTIAPLVLLSALDHYERTQTKENKRCVGVILGDANSSTIRVTNSFALPFEEDEKNSDVWFLDHNYIENMNEMCKKINAKEALIGWYHSGPKLRASDLKINELFKKYTQNNPLLLIVDVKQQGVGLPTDAYVAIEQVKDDGTSTEKTFLHLPCTIEAEEAEEIGVEHLLRDVRDQAAGGLSIRLTNQLKSLKGLQSKLKDVVEYLDKVINKELPINHTILGKLQDVFNLLPNLGTPDDDEIDVENHDRINISNNLQKALTVKTNDELMVIYISNLVRSIIAFDDLIENKIQNKKIQEQRVKDKQSKVSDDSESESGDKEATAPLIQRKNKKN
In turn, B8 yielded a Ub-AMC cleavage rate of Rpn11 in the isolated lid with this variant, relative to the free MPN heterodimer (% of the free MPN-heterodimer levels) in test [4] of 45.

B9: Rpn8 (K86A) (natural protein)
chain: MSLQHEKVTIAPLVLLSALDHYERTQTKENKRCVGVILGDANSSTIRVTNSFALPFEEDEKNSDVWFLDHNYIENMNEMCKKINAAEKLIGWYHSGPKLRASDLKINELFKKYTQNNPLLLIVDVKQQGVGLPTDAYVAIEQVKDDGTSTEKTFLHLPCTIEAEEAEEIGVEHLLRDVRDQAAGGLSIRLTNQLKSLKGLQSKLKDVVEYLDKVINKELPINHTILGKLQDVFNLLPNLGTPDDDEIDVENHDRINISNNLQKALTVKTNDELMVIYISNLVRSIIAFDDLIENKIQNKKIQEQRVKDKQSKVSDDSESESGDKEATAPLIQRKNKKN
On to B9, for which, in test [4], the Ub-AMC cleavage rate of Rpn11 in the isolated lid with this variant, relative to the free MPN heterodimer (% of the free MPN-heterodimer levels) worked out at 33.

B10: Rpn8 (Q115A) (natural protein)
chain: MSLQHEKVTIAPLVLLSALDHYERTQTKENKRCVGVILGDANSSTIRVTNSFALPFEEDEKNSDVWFLDHNYIENMNEMCKKINAKEKLIGWYHSGPKLRASDLKINELFKKYTANNPLLLIVDVKQQGVGLPTDAYVAIEQVKDDGTSTEKTFLHLPCTIEAEEAEEIGVEHLLRDVRDQAAGGLSIRLTNQLKSLKGLQSKLKDVVEYLDKVINKELPINHTILGKLQDVFNLLPNLGTPDDDEIDVENHDRINISNNLQKALTVKTNDELMVIYISNLVRSIIAFDDLIENKIQNKKIQEQRVKDKQSKVSDDSESESGDKEATAPLIQRKNKKN
B10 registered a Ub-AMC cleavage rate of Rpn11 in the isolated lid with this variant, relative to the isolated MPN heterodimer (% of isolated MPN levels) in test [4] of 33.
